Experimental data from EP3470426A1 (Numab Therapeutics AG, dated 2019).
“And” between values parts separate entries of the source, which are not always exact repeats. Equal entries are not always repeated. Where two headings read alike, the source gives them in different places.

How the values were obtained:
[1] = target: T1, CD137 on Jurkat NFkB reporter cells (human, UniProt Q07011 24-255); test: cell-based or functional assay
[2] = target: T1, CD137 on Jurkat NFkB reporter cells; test: cell-based or functional assay; remark: listed apart in the source
[3] = target: T1, CD137 on Jurkat NFkB reporter cells; test: cell-based or functional assay; remark: listed apart in the source
[4] = target: T1, CD137 on Jurkat NFkB reporter cells; test: cell-based or functional assay; remark: listed apart in the source
[5] = target: T1, CD137 on Jurkat NFkB reporter cells; test: cell-based or functional assay; remark: listed apart in the source
[6] = target: T1, CD137 on Jurkat NFkB reporter cells; test: cell-based or functional assay; remark: listed apart in the source
[7] = target: T1, CD137 on Jurkat NFkB reporter cells; test: cell-based or functional assay; remark: listed apart in the source
human PD-L1 on cells [8] = target: T2, human PD-L1 on cells (human, UniProt Q9NZQ7 19-290); test: cell-based or functional assay
human PD-L1 on cells [9] = target: T2, human PD-L1 on cells; test: cell-based or functional assay; remark: listed apart in the source
[10] = target: T1, CD137 on Jurkat NFkB reporter cells; test: cell-based or functional assay; remark: listed apart in the source
human PD-L1 on cells [11] = target: T2, human PD-L1 on cells; test: cell-based or functional assay; remark: listed apart in the source
human PD-L1 on cells [12] = target: T2, human PD-L1 on cells; test: cell-based or functional assay; remark: listed apart in the source
[13] = target: human PD-L1-Fc chimeric protein (human); test: SPR, PD-L1-Fc captured, binder injected

| EC50, NFkB-luciferase reporter, HCC827 cells without IFNg [1] | EC50, NFkB-luciferase reporter, HCC827 with IFNy stimulation, 24h [2] | EC50, NFkB-luciferase reporter, HCC827 without IFNy stimulation, 24h [2] | EC50, NFkB-luciferase reporter, CHO-PD-L1 cells [3] | EC50, NFkB-luciferase reporter, CHO-PD-L1 cells [4] | EC50, NFkB-luciferase reporter, HCC827 cells stimulated with IFNg [5] | EC50, NFkB-luciferase reporter, PD-L1 expressing CHO cells, 24h [6] | EC50, NFkB-luciferase reporter, PD-L1 expressing CHO cells, 24h, + HSA [6] | EC50, NFkB-luciferase reporter, PD-L1 expressing CHO cells, 6h [7] | EC50, NFkB-luciferase reporter, PD-L1 expressing CHO cells, 6h, + HSA [7] | IC50, NFAT-luciferase reporter gene assay (human PD-L1 on cells [8]) | EC50 of IL-2 secretion, PBMC stimulated with SEA (human PD-L1 on cells [11]) | Binder | other results |
| --- | --- | --- | --- | --- | --- | --- | --- | --- | --- | --- | --- | --- | --- |
| 212 ng/mL and 110 ng/mL and 112 ng/mL | 52.8 ng/mL | 47.5 ng/mL | 79.1 ng/mL | 79.5 ng/mL and 104 ng/mL and 86.5 ng/mL | 114 ng/mL and 145 ng/mL and 108 ng/mL | 46.6 ng/mL | 78.2 ng/mL | 56.5 ng/mL | 77.7 ng/mL | – | – | Urelumab (antibody, V domains shown) VH: QVQLQQWGAGLLKPSETLSLTCAVYGGSFSGYYWSWIRQSPEKGLEWIGEINHGGYVTYNPSLESRVTISVDTSKNQFSLKLSSVTAADTAVYYCARDYGPGNYDWYFDLWGRGTLVTVSS VL: EIVLTQSPATLSLSPGERATLSCRASQSVSSYLAWYQQKPGQAPRLLIYDASNRATGIPARFSGSGSGTDFTLTISSLEPEDFAVYYCQQRSNWPPALTFGGGTKVEIK | – |
| 11.5 ng/mL and 13.1 ng/mL and 13 ng/mL | 7.51 ng/mL | 9.52 ng/mL | 11.7 ng/mL | 5.13 ng/mL and 4.86 ng/mL and 6.3 ng/mL | 9.27 ng/mL and 8.88 ng/mL and 9.23 ng/mL | 13.8 ng/mL | 14.8 ng/mL | 7.84 ng/mL | 7.92 ng/mL | 137 ng/mL | 39.9 ng/mL | PRO885 (bispecific antibody) DIQMTQSPSSLSASVGDRVTITCQASQSINDYLAWYQQKPGKAPKLLIYKASTLASGVPSRFSGSGSGTDFTLTISSLQPEDFATYYCQQGYIITDIDNVFGTGTKVTVLGGGGGSQVQLQESGPGLVKPSETLSLTCKVSGFSFSNSYWICWIRQPPGKGLEWIGCTFVGSSDSTYYANWAKGRVTISVDSSKNQFSLKLSSVTAADTAVYYCARHPSDAVYGYANNLWGQGTLVTVSSGGGGSGGGGSGGGGSGGGGSIQMTQSPSSLSASVGDRVTITCQASQSINNVLAWYQQKPGKAPKLLIYRASTLASGVPSRFSGSGSGTDFTLTISSLQPEDFATYYCQSSYGNYGDFGTGTKVTVLGGGGGSQVQLQESGPGLVKPSETLSLTCKVSGFSFSSGYDMCWIRQPPGKGLEWIGCVVAGSVDITYYASWAKGRVTISVDSSKNQFSLKLSSVTAADTAVYYCARKDAYSDAFNLWGQGTLVTVSS | EC50 of IL-2 secretion, PBMC + CHO cells expressing PD-L1 (50000/well), anti-CD3 1 ug/ml (human PD-L1 on cells [9]): 12.8 ng/mL; EC50 of IL-2 secretion, PBMC + CHO cells expressing PD-L1 (50000/well), anti-CD3 2 ug/ml (human PD-L1 on cells [9]): 52 ng/mL; EC50 of IL-2 secretion, PBMC + CHO cells expressing PD-L1 (100000/well), anti-CD3 1 ug/ml (human PD-L1 on cells [9]): 86.2 ng/mL; EC50 of IL-2 secretion, PBMC + CHO cells expressing PD-L1 (100000/well), anti-CD3 2 ug/ml (human PD-L1 on cells [9]): 41.9 ng/mL; EC50 of IL-2 secretion, PBMC + CHO cells expressing PD-L1 (200000/well), anti-CD3 1 ug/ml (human PD-L1 on cells [9]): 80.6 ng/mL; EC50 of IL-2 secretion, PBMC + CHO cells expressing PD-L1 (200000/well), anti-CD3 2 ug/ml (human PD-L1 on cells [9]): 30.1 ng/mL; max. activation (%), NF-kB reporter, CHO-PD-L1 [10]: 499%; max. activation (%), NF-kB reporter, HCC827 +IFNg [10]: 134%; max. activation (%), NF-kB reporter, HCC827 -IFNg [10]: 111% |
| – | – | – | – | – | – | – | – | – | – | 11.1 ng/mL | 40.9 ng/mL | PRO997 (scFv, also called 37-20-B03sc01; PRO977) scFv: DIQMTQSPSSLSASVGDRVTITCQASQSIGTYLAWYQQKPGKAPKLLIYRAFILASGVPSRFSGSGSGTDFTLTISSLQPEDFATYYCQSNFYSDSTTIGPNAFGTGTKVTVLGGGGGSGGGGSGGGGSGGGGSQVQLQESGPGLVKPSETLSLTCKVSGFSFNSDYWIYWIRQPPGKGLEWIGSIYGGSSGNTQYASWAQGRVTISVDSSKNQFSLKLSSVTAADTAVYYCARGYVDYGGATDLWGQGTLVTVSS | fold higher potency on VH4 framework than on VH1 framework (PRO1013), NFAT reporter (human PD-L1 on cells [12]): ~2 fold; fold higher affinity against the STR graft of clone 33-03-G02 (PRO1126) [13]: ~2 fold |
